Target: murine PECAM-1 on cells (bEND3 endothelial cells; REN cells transfected with full-length mouse PECAM) (mouse) (UniProt Q08481)
Test: flow cytometry on CD31 positive bEND3 endothelial cells

Sequence of murine PECAM-1 on cells (bEND3 endothelial cells; REN cells transfected with full-length mouse PECAM) (mouse) (Q08481 18-727): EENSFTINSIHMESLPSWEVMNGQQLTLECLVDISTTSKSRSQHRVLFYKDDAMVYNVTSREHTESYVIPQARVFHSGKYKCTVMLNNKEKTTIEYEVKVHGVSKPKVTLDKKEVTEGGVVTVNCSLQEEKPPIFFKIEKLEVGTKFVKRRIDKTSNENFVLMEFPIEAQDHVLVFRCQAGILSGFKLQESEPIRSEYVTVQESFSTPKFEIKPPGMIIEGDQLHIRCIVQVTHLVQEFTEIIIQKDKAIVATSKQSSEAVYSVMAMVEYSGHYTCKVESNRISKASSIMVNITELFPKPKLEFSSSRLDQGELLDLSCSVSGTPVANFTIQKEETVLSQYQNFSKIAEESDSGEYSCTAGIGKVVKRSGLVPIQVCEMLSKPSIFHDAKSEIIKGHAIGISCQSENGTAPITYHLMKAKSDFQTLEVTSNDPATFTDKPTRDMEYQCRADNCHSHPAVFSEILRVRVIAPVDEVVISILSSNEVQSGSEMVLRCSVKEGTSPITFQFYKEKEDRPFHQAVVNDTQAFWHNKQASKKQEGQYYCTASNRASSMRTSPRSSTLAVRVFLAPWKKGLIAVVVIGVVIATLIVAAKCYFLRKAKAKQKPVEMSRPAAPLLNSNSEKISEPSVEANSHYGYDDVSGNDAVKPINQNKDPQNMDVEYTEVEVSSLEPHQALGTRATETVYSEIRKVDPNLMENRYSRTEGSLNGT

Question: “anti-PECAM scFv (from antibody 390) tagged with soluble tissue factor (sTF)” was tested. Which half-maximal binding did it give?
Answer: 50 nM

Reference: US20090130104A1
